Patent US12295997B2, “Prostate neoantigens and their uses” (Janssen Biotech, Inc., priority 2020, dated 2025)

Tests used:
[1] = tested on: CD8+ T cells in PBMCs from human patients with metastatic castrate-resistant prostate cancer; test: Patient PBMC restimulation assay (in vitro immunogenicity, TNFα/IFNγ intracellular flow cytometry); type: cell-based; details: 9-mer peptide; for Maximum fold change over negative control: TNFα+IFNγ+CD8+ T cells, highest across PBMC donors evaluated; for Maximum frequency of TNFα^+IFNγ^+CD8^+ T cells (Percent): greatest frequency among all tested PBMC donors; for Immunogenic: patient PBMC restimulation
Experimental: PBMCs from human patients with metastatic castrate-resistant prostate cancer were thawed using media (RPMI 1640 supplemented with Glutamax, 10% HI FBS, and 1× Sodium Pyruvate). Cells were counted and plated in a 96 well round bottom microplate at a concentration of 250,000 viable cells per well. Lyophilized peptides were solubilized in 100% DMSO and diluted in media to 10 μg/mL. Neoantigen peptides were added in equal volume to PBMCs for a final concentration of 5 μg/mL. CEF Peptide Pool “Plus” (Cellular Technologies, Ltd.) was utilized as a positive control and DMSO at the same final concentration as the experimental peptides was utilized as a negative control. Human IL-15 (Peprotech) was added to all wells at final concentration of 10 ng/mL.
Plates were incubated at 37° C. (5% CO2) for a total of 13 days. Media was refreshed every 2 days with IL-15 (10 ng/mL final concentration) and IL-2 (R&D systems, 10 IU/mL final concentration). On day 12, PBMCs were re-stimulated with identical experimental peptides or controls, at same concentration as peptide stimulation on Day 1. After 1-hour incubation, protein Inhibitor Cocktail (eBioscience) was added to every well and plate was incubated overnight.
On day 13, cells were stained for intracellular flow cytometry analysis. The cells were washed with PBS and stained with Live/Dead Fixable Aqua Dead Cell stain (Thermo-Fisher). Following the live/dead stain, cells were blocked using Biotin-Free Fc Receptor Blocker (Accurate Chemical & Scientific Corp). Extracellular cellular flow panel ([…] per well in 50 μL) consisted of CD3 PerCP-Cy5.5 (Biolegend), CD4 BV421 (Biolegend), and CD8 APC-Cy7 (Biolegend). After extracellular staining, cells were fixed using Foxp3/fTranscription Factor Staining Buffer Set (eBioscience) and stained for intracellular proteins (1:50 dilution) using TNFα FITC (R&D Systems) and IFNγ BV785 (Biolegend). Cells were washed and resuspended in stain buffer and analyzed using a BD Celesta flow cytometer.
Flow cytometry cell staining analysis was completed using FlowJo v10. Cells were gated on live, singlet, CD3+ cells. The CD8+ T cells were analyzed for TNFα/IFNγ expression and the frequency of double positive TNFα/IFNγ CD8+ T cells was recorded. Responses were assessed to be positive when the frequency of double positive TNFα/IFNγ CD8+ T cells due to stimulation with an experimental peptide was increased greater than or equal to 2-fold over the DMSO only negative control for that patient. Peptides were analyzed in 1 to 7 patient samples.
The 9 mer fragments shown in Table 13 were assessed for their ability to activate T cells using the Patient PBMC restimulation assay described in Example 1 using TNFα and IFNγ production by CD8^+ T cells as a readout. Self-antigens shown in Table 15 were also used in the assays. […] PBMCs from ten patients were evaluated.

[2] = tested on: CD8+ and CD4+ T cells (autologous CD3+ Pan-T cells isolated from human normal PBMCs); test: Exogenous autologous normal donor restimulation assay (15-mer overlapping peptide pools on CD1c+ dendritic cells, TNFα/IFNγ flow cytometry); type: cell-based; details: 15-mer overlapping peptide pool; for Maximum Fold Change Over Background CD4+ cells / Maximum Fold Change Over Background CD8+ cells / Maximum Frequency of TNFα/IFNγ Double Positive CD4+ T cells / Maximum Frequency of TNFα/IFNγ Double Positive CD8+ T cells: Table 25; for Maximum Fold Change Over Background CD4+ cells: TNFα+IFNγ+ CD4+ T cells; for Maximum Fold Change Over Background CD4+ cells / Maximum Fold Change Over Background CD8+ cells: highest fold change over negative control across normal donors; for Maximum Fold Change Over Background CD8+ cells: TNFα+IFNγ+ CD8+ T cells; for Maximum Frequency of TNFα/IFNγ Double Positive CD4+ T cells / Maximum Frequency of TNFα/IFNγ Double Positive CD8+ T cells: highest frequency across normal donors; for Max. Fold Change over background CD4+ TNFαINFγ double positive DP / Max. Fold Change over background CD8+ TNFαINFγ double positive DP / Max. Frequency of CD4+ TNFαINFγ DP / Max. Frequency of CD8+ TNFαINFγ DP: Table 28, additional neoantigens, highest across normal donors
Summary of the method: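 Readout was intracellular TNFα/IFNγ flow cytometry on live CD3+ CD8+ and CD4+ cells after day-11 peptide restimulation. Stimulators were CD1c+ dendritic cells loaded with overlapping 15-mer peptide pools (2.5–10 μg/mL), irradiated, and cultured 12 days with autologous normal-donor Pan-T cells plus IL-15/IL-2. A response counted when ≥3-fold over DMSO control and at least 0.01%.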

Molecule	Maximum fold change over negative control [1]	Maximum frequency of TNFα^+IFNγ^+CD8^+ T cells (Percent) [1]	Immunogenic [1]	Maximum Fold Change Over Background CD4+ cells [2]	Maximum Fold Change Over Background CD8+ cells [2]	Maximum Frequency of TNFα/IFNγ Double Positive CD4+ T cells [2]	Maximum Frequency of TNFα/IFNγ Double Positive CD8+ T cells [2]	Max. Fold Change over background CD4+ TNFαINFγ double positive DP [2]	Max. Fold Change over background CD8+ TNFαINFγ double positive DP [2]	Max. Frequency of CD4+ TNFαINFγ DP [2]	Max. Frequency of CD8+ TNFαINFγ DP [2]
GVPGDSTRRAVRRMNTF (listed as Homo sapiens) [Neoantigen P16]	65.82	4.620%	Yes	2.44	2.44	0.039	0.039				
NSKMALNSLNSIDDAQLTRIAPPRSHCCFWEVNAP (listed as Homo sapiens) [Neoantigen P35]	2.67	0.064%	Yes	3.47	14.44	0.03	0.26				
P27 (LHPQRETFTPRWSGANYWKLAFPVGAEGTFPAAATQRGVVRPA; listed as Homo sapiens) [Peptide P27]	3.43	0.430%	Yes								
P37 (MAGGVLRRLLCREPDRDGDKGASREETVVPLHIGDPVVLPGIGQCYSALF; listed as Homo sapiens) [Peptide P37]	3.13	1.160%	Yes								
P50 (QMAVIQYSCMGLMVFAM; listed as Homo sapiens) [Peptide P50]	5.14	0.190%	Yes								
P59 (LHPDSGNMVENGCYLRR; listed as Homo sapiens) [Peptide P59]	10.75	3.010%	Yes								
P77 (FFKRAAEGF) [Peptide P77]	3.24	0.160%	Yes								
FVSLTAIQMASSATPWGRWPVATPTAACPRRRPSSLPTGGDSASKKPISRRAPWQPWACPGRSVNSAAPRAWCPPATTPRTQSPSRDLRPRCLSSWSS (peptide, listed as Homo sapiens, FASN alternative splicing) FVSLTAIQMASSATPWGRWPVATPTAACPRRRPSSLPTGGDSASKKPISRRAPWQPWACPGRSVNSAAPRAWCPPATTPRTQSPSRDLRPRCLSSWSS								293.94	4.72	1.48	0.09
PVAIKPGTGPPNNSSIHGGSKRSENSYCRDLRGQLRAICCSSYSHDRHTTEERGSRGRHVWRIRRLHTSGLPCCCHSGPHPRRLPDILRLVTSTKTDHTNTTEGTLDYL (peptide, listed as Homo sapiens, RBM47 alternative splicing) PVAIKPGTGPPNNSSIHGGSKRSENSYCRDLRGQLRAICCSSYSHDRHTTEERGSRGRHVWRIRRLHTSGLPCCCHSGPHPRRLPDILRLVTSTKTDHTNTTEGTLDYL								78.51	4.96	0.61	0.07
FGLTTLAGRSSHGTSGLRAATHTKSGDGGQGAARQCEKLLELARATRPWGRSTSASSRWTHRGYMCPPRCAVACW (peptide, listed as Homo sapiens, PEX10 alternative splicing) FGLTTLAGRSSHGTSGLRAATHTKSGDGGQGAARQCEKLLELARATRPWGRSTSASSRWTHRGYMCPPRCAVACW								113.91	4.02	0.43	0.35
LQAAASGQGKQGVPCPWGCCAYAESPRALISGDAPSQVEREVPGPCLNTHSLSHRSPQLPGLPHPKQPSV (peptide, listed as Homo sapiens, TONSL alternative splicing) LQAAASGQGKQGVPCPWGCCAYAESPRALISGDAPSQVEREVPGPCLNTHSLSHRSPQLPGLPHPKQPSV								7.86	2.61	0.11	0.1
KMRAIQAEGGHGQACCGGAWGWAPGDGGPQGMLTHTLPTLGFQSAWTWRREDADRAWRTPKACASRRWSI (peptide, listed as Homo sapiens, LRRC45 alternative splicing) KMRAIQAEGGHGQACCGGAWGWAPGDGGPQGMLTHTLPTLGFQSAWTWRREDADRAWRTPKACASRRWSI								9.48	16.25	0.01	0.26
KGSVERRSVSLGHPAEGWAWAERSLQPGMTTANTGCLSFHHRGCLLPVLPKLHCGLGGLPLVRAKEIKRVQRAGESSLPVKGLLTVASAVIAVLWGRPSEVTGENEAQHD (peptide, listed as Homo sapiens, ILDR1 alternative splicing) KGSVERRSVSLGHPAEGWAWAERSLQPGMTTANTGCLSFHHRGCLLPVLPKLHCGLGGLPLVRAKEIKRVQRAGESSLPVKGLLTVASAVIAVLWGRPSEVTGENEAQHD								184.87	6.85	0.63	0.1
PSGRRTKRLVTLRSGCAIQCWHPRAGPVPSALPHTERPPRLVRGAADPRTVTLGRSPAVMPRAPA (peptide, listed as Homo sapiens, CCNF alternative splicing) PSGRRTKRLVTLRSGCAIQCWHPRAGPVPSALPHTERPPRLVRGAADPRTVTLGRSPAVMPRAPA								129.8	1544.74	0.49	58.7
LLNAEDYRCAIHSKEIYLLSPSPHQAMDKFSLCCINCNLCLHVFLLLLFFQNKDVWLISNIILLWIYGGI (peptide, listed as Homo sapiens, TM9SF3 alternative splicing) LLNAEDYRCAIHSKEIYLLSPSPHQAMDKFSLCCINCNLCLHVFLLLLFFQNKDVWLISNIILLWIYGGI								128.76	6.35	0.18	0.6
LLEPFRRGEPGPRGLLSGSSRGGEGPGRSIEAAPATPLPCCRKNPCRPQPSRFLPPRVLLVIILPKLDCPKLGF (peptide, listed as Homo sapiens, AMACR alternative splicing) LLEPFRRGEPGPRGLLSGSSRGGEGPGRSIEAAPATPLPCCRKNPCRPQPSRFLPPRVLLVIILPKLDCPKLGF								60.93	11.32	0.23	0.43
